Results taken from publication PMC9868604, “Structural insights into 3Fe–4S ferredoxins diversity in M. tuberculosis highlighted by a first redox complex with P450” (Frontiers in Molecular Biosciences, 2022).

B1: FdxE (Rv1786), 3Fe-4S ferredoxin of M. tuberculosis (natural protein)
chain: MKVRLDPSRCVGHAQCYAVDPDLFPIDDSGNSILAEHEVRPEDMQLTRDGVAACPEMALILEEDDAD
notes: also called ferredoxin Rv1786; mtb_1786
B2: FdxE part of the FdxE-CYP143 fusion protein (domain or fragment)
chain: KVRLDPSRCVGHAQCYAVDPDLFPIDDSGNSILAEHEVRPEDMQLTRDGVAACPEMALILEEDDAD
notes: also called fusion FdxE–CYP143; not shown: His-tag, N-terminal, kept

What was measured:
Conditions in all cases: both partners purified
[1] = target: T1, Biotinylated CYP143 with Avi-tag at the C-terminus (M. tuberculosis, UniProt P9WPL3 2-393, biotin (on the Avi-tag)); test: SPR; as a1, sensorgrams at 10, 15, 20, 25, 30 and 35°C; enthalpy from the slope of a Van't Hoff plot
T1 construct: also called CYP143A1; Rv1785c; not shown: Avi-tag, C-terminal, kept

[2] = target: T1, Biotinylated CYP143 with Avi-tag at the …; test: SPR
[3] = target: T2, CYP143 part of the FdxE-CYP143 fusion protein (M. tuberculosis, UniProt P9WPL3 2-393); test: crystal structure; FdxE fused via a linker to the N-terminus of CYP143 on one chain; 1.6 Å; crystals in .2 M sodium chloride, .1 M Bis-Tris pH 6.0, 25% PEG3350, 20°C
T2 construct: also called fusion FdxE–CYP143
T2 sequence (P9WPL3 2-393): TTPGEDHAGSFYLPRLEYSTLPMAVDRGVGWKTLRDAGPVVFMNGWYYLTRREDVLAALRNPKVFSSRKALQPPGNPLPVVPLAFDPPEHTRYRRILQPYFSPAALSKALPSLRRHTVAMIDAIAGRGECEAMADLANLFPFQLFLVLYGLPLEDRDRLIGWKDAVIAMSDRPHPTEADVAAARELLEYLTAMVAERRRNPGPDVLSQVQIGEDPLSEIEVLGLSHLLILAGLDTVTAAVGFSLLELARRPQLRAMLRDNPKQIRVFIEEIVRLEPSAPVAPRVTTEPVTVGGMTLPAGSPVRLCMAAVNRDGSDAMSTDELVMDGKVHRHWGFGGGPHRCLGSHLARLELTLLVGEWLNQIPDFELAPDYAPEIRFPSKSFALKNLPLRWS

T1 sequence (P9WPL3 2-393): as above

Row | Binder | dH [1] [kcal/mol] | Kd [2] [nM] | koff [2] [s⁻¹] | kon [2] [M⁻¹ s⁻¹] | binding result [3]
1 | B1 | -10.8 ± 2.15 | 84 ± 2 | 0.0423 ± 0.0005 | 502000 | 
2 | B2 |  |  |  |  | binds
